Assay results from the supplement of paper PMC10567573.

B1: ZNF75A (parent)
chain: RTHTGEQPYTCSICRRNFSRRSSL

Variants of: B1
Assay: protein stability index of a GFP-peptide fusion (GPS, HEK-293T) (PSI 1-6); higher = more stable
Conditions: c terminus: a fixed tail appended
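Further: lentivirally expressed fusions sorted by FACS into six bins by GFP to DsRed ratio, PSI derived from sequencing read proportions per bin multiplied by bin number.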

For RTHTGEQPYTCSICRRYFSRRSSL [N17Y], which protein stability index is on record?
The protein stability index was 2.63.

For RTHTGEQPYTCSICRRKFSRRSSL [N17K], which protein stability index is on record?
Its protein stability index is 3.78.

With RTHTGEQPYTCSICRRVFSRRSSL [N17V] as the variant, how does the protein stability index read?
The protein stability index was 2.62.

For RTHTGEQPYTCSICRRMFSRRSSL [N17M], which protein stability index is on record?
Its protein stability index is 2.3.

For RTHTGEQPYTCSICRRRFSRRSSL [N17R], which protein stability index is on record?
The protein stability index was 2.99.

For RTHTGEQPYTCSICRRLFSRRSSL [N17L], which protein stability index is on record?
The protein stability index was 1.88.

Which protein stability index does the source give for RTHTGEQPYTCSICRRTFSRRSSL [N17T] here?
Its protein stability index is 3.5.

For RTHTGEQPYTCSIMRRNFSRRSSL [C14M], which protein stability index is on record?
The protein stability index was 3.92.

With RTHTGEQPYTCSISRRNFSRRSSL [C14S] as the variant, how does the protein stability index read?
The protein stability index was 4.04.

With RTHTGEQPYTCSIKRRNFSRRSSL [C14K] as the variant, how does the protein stability index read?
Its protein stability index is 4.03.

For RTHTGEQPYTCSIRRRNFSRRSSL [C14R], which protein stability index is on record?
Its protein stability index is 4.49.

For RTHTGEQPYTCSIERRNFSRRSSL [C14E], which protein stability index is on record?
The protein stability index was 4.42.

Which protein stability index does the source give for RTHTGEQPYTCSIQRRNFSRRSSL [C14Q] here?
The protein stability index was 3.72.

With RTHTGEQPYTCSITRRNFSRRSSL [C14T] as the variant, how does the protein stability index read?
The protein stability index was 4.21.

Which protein stability index does the source give for RTHTGEQPYTCSIYRRNFSRRSSL [C14Y] here?
Its protein stability index is 3.66.

With RTHTGEQPYTCSINRRNFSRRSSL [C14N] as the variant, how does the protein stability index read?
The protein stability index was 4.11.

Which protein stability index does the source give for RTHTGEQPYTCSILRRNFSRRSSL [C14L] here?
The protein stability index was 3.5.

For RTHTGEQPYTCSIGRRNFSRRSSL [C14G], which protein stability index is on record?
Its protein stability index is 4.72.

Which protein stability index does the source give for RTHTGEQPYTCSIFRRNFSRRSSL [C14F] here?
Its protein stability index is 3.59.

Which protein stability index does the source give for RTHTGEQPYTCSIVRRNFSRRSSL [C14V] here?
The protein stability index was 4.03.

For RTHTGEQPYTCSIARRNFSRRSSL [C14A], which protein stability index is on record?
The protein stability index was 3.67.

With RTHTGEQPYTCSIWRRNFSRRSSL [C14W] as the variant, how does the protein stability index read?
The protein stability index was 2.68.

Which protein stability index does the source give for RTHTGEQPYTCSIHRRNFSRRSSL [C14H] here?
Its protein stability index is 3.87.

For RTHTGEQPYTCSIIRRNFSRRSSL [C14I], which protein stability index is on record?
Its protein stability index is 4.01.

For RTHTGEQPYTCSIPRRNFSRRSSL [C14P], which protein stability index is on record?
The protein stability index was 3.6.

Which protein stability index does the source give for RTHTGEQPYTCSIDRRNFSRRSSL [C14D] here?
Its protein stability index is 3.7.

Which protein stability index does the source give for RTHTGEQPYTCSICMRNFSRRSSL [R15M] here?
The protein stability index was 1.6.

For RTHTGEQPYTCSICYRNFSRRSSL [R15Y], which protein stability index is on record?
The protein stability index was 1.89.

Which protein stability index does the source give for RTHTGEQPYTCSICCRNFSRRSSL [R15C] here?
Its protein stability index is 2.

Which protein stability index does the source give for RTHTGEQPYTCSICFRNFSRRSSL [R15F] here?
The protein stability index was 1.85.

Which protein stability index does the source give for RTHTGEQPYTCSICARNFSRRSSL [R15A] here?
The protein stability index was 2.13.

With RTHTGEQPYTCSICQRNFSRRSSL [R15Q] as the variant, how does the protein stability index read?
The protein stability index was 2.25.

With RTHTGEQPYTCSICWRNFSRRSSL [R15W] as the variant, how does the protein stability index read?
Its protein stability index is 2.02.

Which protein stability index does the source give for RTHTGEQPYTCSICERNFSRRSSL [R15E] here?
Its protein stability index is 2.03.

For RTHTGEQPYTCSICNRNFSRRSSL [R15N], which protein stability index is on record?
Its protein stability index is 2.84.

For RTHTGEQPYTCSICKRNFSRRSSL [R15K], which protein stability index is on record?
The protein stability index was 2.86.

With RTHTGEQPYTCSICIRNFSRRSSL [R15I] as the variant, how does the protein stability index read?
The protein stability index was 2.32.

Which protein stability index does the source give for RTHTGEQPYTCSICPRNFSRRSSL [R15P] here?
Its protein stability index is 3.19.

With RTHTGEQPYTCSICDRNFSRRSSL [R15D] as the variant, how does the protein stability index read?
Its protein stability index is 2.02.

Which protein stability index does the source give for RTHTGEQPYTCSICSRNFSRRSSL [R15S] here?
Its protein stability index is 2.47.

For RTHTGEQPYTCSICTRNFSRRSSL [R15T], which protein stability index is on record?
Its protein stability index is 2.34.

Which protein stability index does the source give for RTHTGEQPYTCSICHRNFSRRSSL [R15H] here?
The protein stability index was 2.49.

Which protein stability index does the source give for RTHTGEQPYTCSICGRNFSRRSSL [R15G] here?
Its protein stability index is 2.93.

With RTHTGEQPYTCSICVRNFSRRSSL [R15V] as the variant, how does the protein stability index read?
Its protein stability index is 1.7.

Which protein stability index does the source give for RTHTGEQPYTCSICLRNFSRRSSL [R15L] here?
The protein stability index was 1.54.

With RTHTGEQPYSCSICRRNFSRRSSL [T10S] as the variant, how does the protein stability index read?
Its protein stability index is 2.01.

For RTHTGEQPYNCSICRRNFSRRSSL [T10N], which protein stability index is on record?
The protein stability index was 2.67.

For RTHTGEQPYQCSICRRNFSRRSSL [T10Q], which protein stability index is on record?
Its protein stability index is 2.32.

Which protein stability index does the source give for RTHTGEQPYWCSICRRNFSRRSSL [T10W] here?
Its protein stability index is 2.63.

For RTHTGEQPYKCSICRRNFSRRSSL [T10K], which protein stability index is on record?
Its protein stability index is 2.43.

Which protein stability index does the source give for RTHTGEQPYMCSICRRNFSRRSSL [T10M] here?
The protein stability index was 3.48.

With RTHTGEQPYHCSICRRNFSRRSSL [T10H] as the variant, how does the protein stability index read?
The protein stability index was 2.85.

For RTHTGEQPYLCSICRRNFSRRSSL [T10L], which protein stability index is on record?
The protein stability index was 2.88.

Which protein stability index does the source give for RTHTGEQPYDCSICRRNFSRRSSL [T10D] here?
The protein stability index was 3.48.

For RTHTGEQPYVCSICRRNFSRRSSL [T10V], which protein stability index is on record?
Its protein stability index is 3.85.

For RTHTGEQPYRCSICRRNFSRRSSL [T10R], which protein stability index is on record?
The protein stability index was 2.57.

Which protein stability index does the source give for RTHTGEQPYICSICRRNFSRRSSL [T10I] here?
The protein stability index was 3.52.

With RTHTGEQPYFCSICRRNFSRRSSL [T10F] as the variant, how does the protein stability index read?
The protein stability index was 2.71.

With RTHTGEQPYCCSICRRNFSRRSSL [T10C] as the variant, how does the protein stability index read?
The protein stability index was 2.63.

Which protein stability index does the source give for RTHTGEQPYGCSICRRNFSRRSSL [T10G] here?
The protein stability index was 2.18.

Which protein stability index does the source give for RTHTGEQPYPCSICRRNFSRRSSL [T10P] here?
The protein stability index was 3.09.

For RTHTGEQPYYCSICRRNFSRRSSL [T10Y], which protein stability index is on record?
The protein stability index was 2.5.

For RTHTGEQPYACSICRRNFSRRSSL [T10A], which protein stability index is on record?
Its protein stability index is 2.85.

With RTHTGEQPYECSICRRNFSRRSSL [T10E] as the variant, how does the protein stability index read?
The protein stability index was 2.37.

For RTHTGEQPYTCAICRRNFSRRSSL [S12A], which protein stability index is on record?
Its protein stability index is 2.21.

Which protein stability index does the source give for RTHTGEQPYTCMICRRNFSRRSSL [S12M] here?
Its protein stability index is 2.41.

For RTHTGEQPYTCGICRRNFSRRSSL [S12G], which protein stability index is on record?
Its protein stability index is 2.38.

With RTHTGEQPYTCVICRRNFSRRSSL [S12V] as the variant, how does the protein stability index read?
The protein stability index was 2.98.

For RTHTGEQPYTCRICRRNFSRRSSL [S12R], which protein stability index is on record?
Its protein stability index is 3.07.

Which protein stability index does the source give for RTHTGEQPYTCFICRRNFSRRSSL [S12F] here?
Its protein stability index is 2.83.

Which protein stability index does the source give for RTHTGEQPYTCHICRRNFSRRSSL [S12H] here?
Its protein stability index is 3.13.

For RTHTGEQPYTCYICRRNFSRRSSL [S12Y], which protein stability index is on record?
Its protein stability index is 2.81.

Which protein stability index does the source give for RTHTGEQPYTCIICRRNFSRRSSL [S12I] here?
The protein stability index was 2.53.

For RTHTGEQPYTCDICRRNFSRRSSL [S12D], which protein stability index is on record?
Its protein stability index is 3.1.

With RTHTGEQPYTCPICRRNFSRRSSL [S12P] as the variant, how does the protein stability index read?
The protein stability index was 3.14.

For RTHTGEQPYTCTICRRNFSRRSSL [S12T], which protein stability index is on record?
Its protein stability index is 2.82.

For RTHTGEQPYTCCICRRNFSRRSSL [S12C], which protein stability index is on record?
Its protein stability index is 2.4.

For RTHTGEQPYTCKICRRNFSRRSSL [S12K], which protein stability index is on record?
Its protein stability index is 2.63.

Which protein stability index does the source give for RTHTGEQPYTCNICRRNFSRRSSL [S12N] here?
The protein stability index was 2.52.

With RTHTGEQPYTCWICRRNFSRRSSL [S12W] as the variant, how does the protein stability index read?
Its protein stability index is 2.21.

For RTHTGEQPYTCQICRRNFSRRSSL [S12Q], which protein stability index is on record?
The protein stability index was 2.61.

With RTHTGEQPYTCEICRRNFSRRSSL [S12E] as the variant, how does the protein stability index read?
The protein stability index was 2.26.

With RTHTGEQPYTCLICRRNFSRRSSL [S12L] as the variant, how does the protein stability index read?
The protein stability index was 2.04.

Which protein stability index does the source give for RTHTGEQNYTCSICRRNFSRRSSL [P8N] here?
Its protein stability index is 3.01.

Which protein stability index does the source give for RTHTGEQWYTCSICRRNFSRRSSL [P8W] here?
The protein stability index was 3.05.

With RTHTGEQKYTCSICRRNFSRRSSL [P8K] as the variant, how does the protein stability index read?
Its protein stability index is 3.13.

For RTHTGEQQYTCSICRRNFSRRSSL [P8Q], which protein stability index is on record?
Its protein stability index is 2.85.

Which protein stability index does the source give for RTHTGEQSYTCSICRRNFSRRSSL [P8S] here?
Its protein stability index is 2.81.

Which protein stability index does the source give for RTHTGEQMYTCSICRRNFSRRSSL [P8M] here?
The protein stability index was 3.06.

With RTHTGEQLYTCSICRRNFSRRSSL [P8L] as the variant, how does the protein stability index read?
Its protein stability index is 2.87.

For RTHTGEQVYTCSICRRNFSRRSSL [P8V], which protein stability index is on record?
Its protein stability index is 3.4.

Which protein stability index does the source give for RTHTGEQYYTCSICRRNFSRRSSL [P8Y] here?
Its protein stability index is 3.16.

For RTHTGEQTYTCSICRRNFSRRSSL [P8T], which protein stability index is on record?
The protein stability index was 3.76.

With RTHTGEQRYTCSICRRNFSRRSSL [P8R] as the variant, how does the protein stability index read?
The protein stability index was 2.35.
